Here are results for 15 sequences from the DeepSol protein solubility set.

A short description of the series: soluble on expression in E. coli; label from the status in PepcDB or PDB records.
As to “MEHYMNTLAETMQRYVEKHDLHNLEGIKQTAIEGVWFYRSSKGNNRQPFVYQSGIIVLGQGHKNIHIGQTPVQYGPDDYLVVGVPMPLECEAFATNNEPLLGISIDISPTLLHKLVKKLEAQKFSNICEDSKRCGLKSVRMNDAMLDACKRLMKALCNDLDVAILGESLLEEIVYRTLVSKEGYVLFELAHQEGSYARVAKALNRVHAEYHEQLNVQTLAEEANMSVSAFHQAFRSVTLESPLQYIKKVRLNKARDLIQLEGKRVNDAARLVGYSSPSQFSREYKRHFNETPRSTKA”, the “soluble on expression in E. coli” value is on record as “not soluble”.

Regarding “MGSDKIHHHHHHLPAHLTPIQMEPEKALLRVHCQSDIDQLLSESVVFTLLSERNLGPKMLGVFPGGRFEQFIPSRALQCLEISKPGLSKLIAPIVARVHTLDAPIPKEPQTLQTARQWLERFKKTPAGERPIEMYLTQAKVPKSDYPSTITVAQLERELNFVEFFLQHSHSPVVFSHNDLQEGNFLLIDGYKLADDGTVLTPDGKPTNDDPLSLIDFEYCSYNYRGFDLGNHFCEYGYDYNEAEAPYYKIHQHYFEVEKERKVFCEAYLDEVYKMRACGDNPHFPSDLVTGDREKDLNKIIEESILFMPVSNIFWVCWSLINAEESSIAFDYGAYGRDRLALYFHQKKNLEKYLSNL”, the “soluble on expression in E. coli” value is “not soluble”.

Regarding “SLTHYKYYEANVETNQVLVFLHGFLSDSRTYHNHIEKFTDNYHVITIDLPGHGEDQSSMDETWNFDYITTLLDRILDKYKDKSITLFGYSMGGRVALYYAINGHIPISNLILESTSPGIKEEANQLERRLVDDARAKVLDIAGIELFVNDWEKLPLFQSQLELPVEIQHQIRQQRLSQSPHKMAKALRDYGTGQMPNLWPRLKEIKVPTLILAGEYDEKFVQIAKKMANLIPNSKCKLISATGHTIHVEDSDEFDTMILGFLKEEQND”, the “soluble on expression in E. coli” value is “soluble”.

Consider “MSLGTPVTLRMDTTDADGRITLGDLFDGVSGPAANVVVAARMSATAVLEAGQVQMSARRAGYVWTNANGVRRIIVREGVDNGGVSSSAAPGAQLAGARLAGAPRANVEVLPYARSLSAGEIVQPQDLIWVKMAGAPADAPRDADAVIGLAAKRPLREGAPVGMKDVAAAQVIKSGDLITITYEDGGISLSLQGKAMAAAAAGDVFAVQNTLSKKIIQAVAVGPGAAAVGPQEGHHHHHH”, for which the “soluble on expression in E. coli” value is listed as “not soluble”.

“MDPTQHRKAARPCDARRVLVLQGGGALGAYQAGAYQALCHHDFEPQWLAGISIGAINAAIIAGNPREQRVEKLKQFWEMASSPVPWQPLLRDDHVHSLFNETSAAMIATFGVPGFFTPRFPPTHLLPSGKPSNLSYYDTAPLRSTLERLVDFDRLNHNGIRLSVGAVNIATGNFVYFDTTKQIIGPEHIMASAALPPGFPAIEIDGEHYWDGGVASNTPLDYVL”: the “soluble on expression in E. coli” value is “not soluble”.

For “MGSDKIHHHHHHMNYKTSIADNVTEKEISEKLGISLSTVKRSVSRLKNNKNLIDKVISNNVIAEGSYKTYNKYHVAKCNEDFFYIYNSFFNDDMNIAKASERIKIKNFLLKLKAICKKETNKYISESPYMDGLNKAELSKKLGIIDTKTLNKYLEMAVNAGQIKYITNGLLILNKSIIPDFKKDDTDTRIYHIIYDWCIDNDVVPPDRNDEIKIMEDGSVRRKNSLLLEIAGKLGYMKDEEIRSLLTNRITSEEITLEYIAKVLNIKNKKKKEEIEWPPIIMLD”, the “soluble on expression in E. coli” value was “not soluble”.

As for “MRMIFVNLPVKNIEVSKSFFTALGFSFNPEYSDDRTLCMIVEENIFVMLLQEDRFRDFINGDIADAKQSTEVLTCLSAGSREEIDEMIATALASGGSSWKPVQDHGFMYAGSFQDPDGHVWELVHMTGQG”, the “soluble on expression in E. coli” value was “soluble”.

As for “MGSDKIHHHHHHMSEEPRYLAVDVGGTNLKYALINRSGQMIKKSRMETPHEGLTQFLEAIEKISDKLKGQLNGVAFSTPGRVDTTTDTIYCRNSTLPYLNEVCLPRKLQKLGLPISVENDGKSAALAESWLGNLNDVKNGMAIVLGTCVGGGIMLDGHLWAGSRRLAGEVSLMPADQTNLADDGLFGKTGSAVRMIEAVNTVIGASCLTDGHCAFAAINAGQAQATQIFRQYAREVAALILNVQTVLDLDRYVIGGGISFQPILIDEINRQYDWILERRPWVKSTIARPEILSSRFHNDANLYGALYRLFNKLDAKHDVPIDLDNLLVNAGR”, the “soluble on expression in E. coli” value is recorded as “not soluble”.

Take “GMDISLLKQVVQSTNKIALSTAVNNEADVKIVNFVWYEAQPDTLYFSSVKTSPALKVYDQNPDIAFITIPNDGTAGNPYLRAQHVKLQRSTKTMTDLLPQYLETVPNYQQVWDAIGSTLVVFELKLTDLFVDAGVGGEKQTLTFN”: the “soluble on expression in E. coli” value is “soluble”.

On to “MSKTAIIFPGQGAQKVGMAQDLFNNNDQATEILTSAANTLDFDILETMFTDEEGKLGETENTQPALLTHSSALLAALKNLNPDFTMGHSLGEYSSLVAADVLSFEDAVKIVRKRGQLMAQAFPTGVGSMAAVLGLDFDKVDEICKSLSSDDKIIEPANINCPGQIVVSGHKALIDELVEKGKSLGAKRVMPLAVSGPFHSSLMKVIEEDFSSYINQFEWRDAKFPVVQNVNAQGETDKEVIKSNMVKQLYSPVQFINSTEWLIDQGVDHFIEIGPGKVLSGLIKKINRDVKLTSIQTLEDVKGWNEND”, for which the “soluble on expression in E. coli” value is on record as “not soluble”.

Turning to “MKCGLEIHVQLDTRSKLFCRCPTDYQEAPPNTNICPVCLNQPGAKPYPPNRSALEGALKIALMLDCRINPEITYFMRKHYNYPDLPSGYQRTSIPVGLEGELNGVRIREVHIEEDPGQYKPDQGTVDFNRSGIPLIEIVTEPDMTSPEEARNFLRELIRVLEYSGCARGEGTMRADVNISLEGGKRVEIKNINSIKGAYKALKFEMIRQKNLLKRGVEVKQETRAFLESQMITVSMRLKEEAEDYRYIPDPDLPPMKFTDEVVEGLRERIPEAPHLKVKRFMEEYGLREEDARVLTSELELADAFEEVAGSIDPEFAALWMRDELKRVLYYNKISFAESMITPGDIIELLAMIRKKEITSKAAKKIIEEMPLNKKGPREIATEMGLIGIIDESEVIRAVEQAIRENPGAVEDYHAGKEAAINFLVGQVMRMTRGKAEPERTVELIKERI”, the “soluble on expression in E. coli” value is on record as “soluble”.

As to “MIEVDGYFYHNAGAENKNTFVNDRWKMNDAAVRGYLVLRYPASSVFEELDTIVGQVIFATRVVREELVVVDSTRRWHRGPWEWLPLDSW”, the “soluble on expression in E. coli” value is “not soluble”.

Regarding “MTKPLDGINVLDFTHVQAGPACTQMMGFLGANVIKIERRGSGDMTRGWLQDKPNVDSLYFTMFNCNKRSIELDMKTPEGKELLEQMIKKADVMVENFGPGALDRMGFTWEYIQELNPRVILASVKGYAEGHANEHLKVYENVAQCSGGAAATTGFWDGPPTVSGAALGDSNSGMHLMIGILAALEIRHKTGRGQKVAVAMQDAVLNLVRIKLRDQQRLERTGILAEYPQAQPNFAFDRDGNPLSFDNITSVPRGGNAGGGGQPGWMLKCKGWETDADSYVYFTIAANMWPQICDMIDKPEWKDDPAYNTFEGRVDKLMDIFSFIETKFADKDKFEVTEWAAQYGIPCGPVMSMKELAHDPSLQKVGTVVEVVDEIRGNHLTVGAPFKFSGFQPEITRAPLLGEHTDEVLKELGLDDAKIKELHAKQVV”, the “soluble on expression in E. coli” value is on record as “soluble”.

With “MSLNTWNELTVHVNREAEEAVSNLLIETGSQGVAISDSADYLGQEDRFGELYPEVEQSDMIAITAYYPDTLDIEAVKADLADRLANFEGFGLATGSVNLDSQELVEEDWADNWKKYYEPARITHDLTIVPSWTDYEAKAGEKIIKMDPGMAFGTGTHPTTKMSLFALEQVLRGGETVIDVGTGSGVLSIASSLLGAKDIYAYDLDDVAVRVAQENIDMNPGTENIHVAAGDLLKGVQQEVDVIVANILADILIHLTDDAYRLVKDEGYLIMSGIISEKWDMVRESAEKAGFFLETHMVQGEWNACVFKKTDDISGVIGGEGHHHHHH”, the “soluble on expression in E. coli” value was “soluble”.

For the sequence “RLIVGKHHWKIEKQPEWYVKAVRKTIAALPSGYAEAADWLDVTENALFNRLRADGDQIFPLGWAMVLQRAGGTHFIADAVAQSANGVFVSLPDVEDVDNADINQRLLEVIEQIGSYSKQIRSAIEDGVVEPHEKTAINDELYLSISKLQEHAALVYKIFCISESNDARECAAPGVVASIASGCGETNA”, the “soluble on expression in E. coli” value is given as “soluble”.
